Experimental data taken from publication doi:10.1101/2024.11.23.624830 (bioRxiv, 2024).

Molecular target: the molecule itself
Assay: single-molecule photobleaching step analysis

B1: EmrE with a TC-tag (natural protein)
chain: MNPYIYLGGAILAEVIGTTLMKFSEGFTRLWPSVGTIICYCASFWLLAQTLAYIPTGIAYAIWSGVGIVLISLLSWGFFGQRLDLPAIIGMMLICAGVLIINLLSRSTPH
modifications: FlAsH dye bound covalently to the tetracysteine tag
stoichiometry N: 2
